The chains are these.
B1: VH:VL chains; a variant is named by its letters at X, in order (parent)
chain 1: QVQLVQSGAEVKKPGASVKVSCKASGYTFTDYXMHWVRQAPGQGLEWMGXVNPNXXXTTYNQKFEGRVTMTTDTSTSTAYMELRSLRSDDTAVYYCARXNXLDXWGQGTTVTVSS
chain 2: DIQMTQSPSSLSASVGDRVTITCSVSSSVSSIYLHWYQQKPGKAPKLLIYSTSNLASGVPSRFSGSGSGTDFTLTISSLQPEDFATYYCQVYSGYPLTFGGGTKVEIK

We go through 127 variants from the emibetuzumab library of Makowski et al. (2022).

The data set covers variants of B1. Description: yeast display scFab, FACS + sequencing. The gist of the method:
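For the non-specific binding call, a heavy-chain CDR mutant scFab library on the yeast surface was FACS-sorted and samples from two replicates were deep sequenced. Cells were labelled with anti-Myc and either biotinylated ovalbumin (260 μg/mL in PBSB, 3 h, room temperature) or soluble membrane proteins (130 μg/mL, 20 min on ice), with gates on the top 25% and bottom 10% of binders. With membrane protein and ovalbumin samples pooled, a sequence in ≥3 of 4 positive samples and no negatives was scored positive, and the converse rule scored negatives.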
Turning to FRGRDSWS, the non-specific binding call is given as “binds”. Then FRGKGSGF, with “binds”.

For FRGKGSGD, the non-specific binding call is on record as “binds”. Then FRGKGSGA, with “binds”; and FRGKGSGV, with “binds”; and YRGKGYVV, with “binds”. Next, ARGRGAWV: “binds”; DRGRDDLV: “no binding”; FRGRGALY: “binds”. Turning to FRGRGALF, the non-specific binding call was “binds”. For FRGRGALA, the non-specific binding call is “binds”. With FRGRGALS, the non-specific binding call is given as “binds”. In the case of VRGRDYGD, the non-specific binding call is given as “binds”. YRGRDVGY: the non-specific binding call is listed as “binds”. Turning to YRGKGSLA, the non-specific binding call was “binds”.

Turning to YRGRASGA, the non-specific binding call was “binds”. In the case of YRGKDASD, the non-specific binding call is “binds”. As for FRGRDAVD, the non-specific binding call is recorded as “binds”. With FRGRDAVF, the non-specific binding call is “binds”. On to FRGRGASD, for which the non-specific binding call is “binds”. Then FRGRGASV, with “binds”. Next, YRGRDASA: “binds”. Take YRGRDASF: the non-specific binding call was “no binding”. As to YRGRDASS, the non-specific binding call is on record as “no binding”. Consider FRGRGAGS, for which the non-specific binding call was “binds”.

For FRGRGAGA, the non-specific binding call is “binds”. Consider FRGKGAWD, for which the non-specific binding call was “binds”.

As to YRGRDSAS, the non-specific binding call is recorded as “no binding”. In the case of FRGRGFGV, the non-specific binding call is recorded as “binds”. Take FRGRDVVV: the non-specific binding call was “binds”. YRGRASVV: the non-specific binding call is given as “binds”. Next, SRGRGAWS: “binds”; SRGRGAWA: “binds”.

As to SRGRGAWY, the non-specific binding call is on record as “binds”. Regarding SRGRGAWD, the non-specific binding call is “binds”. As to SRGRGAWF, the non-specific binding call is “binds”. Turning to FRGRDDVF, the non-specific binding call is given as “no binding”. Take YRGRDDLA: the non-specific binding call is “no binding”.

In the case of YRGRGALF, the non-specific binding call was “binds”. Next, YRGRGALS: “binds”. Next, VRGKGSGV: “binds”; VRGKGSGF: “binds”; VRGKGSGA: “binds”. Then YRGKDSGS, with “binds”; and YRGKDSGA, with “binds”. Regarding YRGKGAAS, the non-specific binding call is “binds”.

On to YRGKGAAF, for which the non-specific binding call is listed as “binds”. As for DRGRDAWF, the non-specific binding call is listed as “no binding”. Then DRGRDAWS, with “no binding”. As for FRGKGASD, the non-specific binding call is listed as “binds”. Next, FRGKGASS: “binds”; FRGKGASV: “binds”. For FRGRASLS, the non-specific binding call was “binds”. Next, FRGRGFVA: “binds”; YRGKDAWS: “binds”. For YRGKDAWY, the non-specific binding call is “binds”.

Take DRGRGDWV: the non-specific binding call is given as “no binding”. On to FRGRGAVY, for which the non-specific binding call was “binds”. In the case of FRGRDFGS, the non-specific binding call is given as “binds”. With YRGRAAVS, the non-specific binding call is listed as “binds”.

Take FRGRDFAD: the non-specific binding call is “binds”. Take FRGRGSLV: the non-specific binding call is given as “binds”. FRGRGSLS: the non-specific binding call is recorded as “binds”. Consider FRGRGSLF, for which the non-specific binding call is “binds”. For DRGRDFGV, the non-specific binding call is reported as “no binding”. Consider YRGKDSVD, for which the non-specific binding call is reported as “binds”.

On to VRGKGAAD, for which the non-specific binding call was “binds”. With YRGRGFWF, the non-specific binding call is on record as “binds”. As to YRGKGAWS, the non-specific binding call was “binds”. YRGKGAWY: the non-specific binding call is “binds”.

With YRGKGAWA, the non-specific binding call is “binds”.

ARGRGSVA: the non-specific binding call was “binds”. On to FRGRGDGY, for which the non-specific binding call is “binds”.

For the variant FRGRGDGD, the non-specific binding call was “binds”.

Regarding FRGRDDWA, the non-specific binding call is reported as “no binding”. Then YRGRGFAS, with “binds”. As to YRGRGFAY, the non-specific binding call was “binds”. YRGRGFAD: the non-specific binding call was “binds”. FRGRDDLV: the non-specific binding call is on record as “no binding”. Next, FRGKGSLA: “binds”; FRGRDFSA: “binds”; ARGRGAAD: “binds”. On to ARGRGAAS, for which the non-specific binding call is recorded as “binds”. FRGKGAGS: the non-specific binding call was “binds”.

For the variant FRGKGAGA, the non-specific binding call was “binds”.

Turning to FRGKGAGY, the non-specific binding call was “binds”. YRGKSSWA: the non-specific binding call was “binds”. In the case of VRGKGASA, the non-specific binding call is listed as “binds”.

With YRGRGAWF, the non-specific binding call is reported as “binds”.

Consider FRGRGAWS, for which the non-specific binding call was “binds”. For FRGRGAWV, the non-specific binding call was “binds”. Regarding FRGRGAWD, the non-specific binding call is reported as “binds”.

With FRGRGAWF, the non-specific binding call was “binds”. Take DRGRGSAD: the non-specific binding call was “binds”.

Consider VRGRDDGV, for which the non-specific binding call was “no binding”.

Take YRGKGSWA: the non-specific binding call was “binds”. Regarding YRGKGSWS, the non-specific binding call is reported as “binds”. For ARGRDAWV, the non-specific binding call is on record as “binds”. As to FRGKGFGV, the non-specific binding call is listed as “binds”.

With FRGRGDLS, the non-specific binding call is recorded as “binds”. SRGKSFGS: the non-specific binding call is recorded as “binds”. Take YRGRDSSS: the non-specific binding call is “binds”. Next, YRGRDFVD: “binds”. Consider FRGRGSWV, for which the non-specific binding call was “binds”.

In the case of FRGRGSWS, the non-specific binding call was “binds”. As for DRGRGDVV, the non-specific binding call is given as “no binding”. For YRGRDAGF, the non-specific binding call is “binds”. As to SRGRGAVS, the non-specific binding call is “binds”. In the case of SRGRGAVD, the non-specific binding call is listed as “binds”. Regarding YRGRGSSF, the non-specific binding call is on record as “binds”. In the case of SRGRGSWD, the non-specific binding call is recorded as “binds”. Take FRGRDALY: the non-specific binding call is “binds”.

With YRGKSSGF, the non-specific binding call is “binds”.

Turning to DRGKNDGD, the non-specific binding call is reported as “no binding”. On to FRGKGAVD, for which the non-specific binding call was “binds”. Turning to FRGKGAVS, the non-specific binding call is recorded as “binds”.

For VRGRGFAA, the non-specific binding call is “binds”. On to FRGRDSVA, for which the non-specific binding call is reported as “binds”. With FRGRDVAV, the non-specific binding call is recorded as “binds”.

YRGKGALS: the non-specific binding call is “binds”.

On to YRGKGALA, for which the non-specific binding call is “binds”. Consider VRGKGDWV, for which the non-specific binding call is reported as “no binding”.

Regarding SRGKGSGV, the non-specific binding call is “binds”. For the variant FRGRDSGY, the non-specific binding call is reported as “binds”. FRGRGFSV: the non-specific binding call is recorded as “binds”. For FRGRGFSA, the non-specific binding call is “binds”. Take YRGKGYAA: the non-specific binding call is “binds”.
